This passage reports increase of SHP1 phosphatase activity on DiFMUP with 0 to 3,000 nM SIRPα peptide (fold) and increase of phosphatase activity on DiFMUP with 0 to 3,000 nM SIRPα peptide (fold results from article PMC7550718.

Some targets named below: SHP1 R136Q (human) (UniProt P29350); SHP1 R30Q (human) (UniProt P29350); SHP1 R30Q R136Q (human) (UniProt P29350).
The target of assay [1] is Full length wild type SHP1 (human) (UniProt P29350).

As for “SIRPα di-phosphopeptide corresponding to residues 427 to 460 of human SIRPα (H2N-ITpYADLNLP-PEG8-HTEpYASIQTSK-NH2)”, the increase of SHP1 phosphatase activity on DiFMUP with 0 to 3,000 nM SIRPα peptide (fold) in assay [1] turned out to be 35 fold. Also, the values for the increase of phosphatase activity on DiFMUP with 0 to 3,000 nM SIRPα peptide (fold at 3 μM) with SHP1 R136Q (human), in the assay with SHP1 R30Q (human) and in the assay with SHP1 R30Q R136Q (human) were 3.5 fold, 1.8 fold and 1.1 fold, respectively.
